No end group written: not given here.
T1: β4Gal-T2 (Homo sapiens, UniProt O60909)
T1 construct: An expression construct designed to encode amino acid residues 31-372 of β4Gal-T2 was prepared by RT-PCR; secretion signal of vector pAcGP67 (gp67 leader; own knowledge of the vector) (N); made in house; host or cells: Sf9 (Spodoptera frugiperda) cells, baculovirus; unpurified culture supernatant
T1 sequence (O60909 31-372): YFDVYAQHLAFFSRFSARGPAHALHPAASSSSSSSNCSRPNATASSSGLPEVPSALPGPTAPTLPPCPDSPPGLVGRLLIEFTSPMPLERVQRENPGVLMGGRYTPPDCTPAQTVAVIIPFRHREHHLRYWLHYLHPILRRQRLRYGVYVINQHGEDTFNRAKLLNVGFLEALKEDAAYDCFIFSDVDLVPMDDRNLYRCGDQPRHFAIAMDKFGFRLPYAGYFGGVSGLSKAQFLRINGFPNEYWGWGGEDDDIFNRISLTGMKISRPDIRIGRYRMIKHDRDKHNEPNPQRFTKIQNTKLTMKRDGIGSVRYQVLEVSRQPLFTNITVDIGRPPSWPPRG

T2: Bovine milk β4Gal-T (Bos taurus, UniProt P08037)
T2 construct: Purified bovine milk enzyme; purchased Sigma; host or cells: bovine milk
T2 sequence (P08037 79-402 limits assumed): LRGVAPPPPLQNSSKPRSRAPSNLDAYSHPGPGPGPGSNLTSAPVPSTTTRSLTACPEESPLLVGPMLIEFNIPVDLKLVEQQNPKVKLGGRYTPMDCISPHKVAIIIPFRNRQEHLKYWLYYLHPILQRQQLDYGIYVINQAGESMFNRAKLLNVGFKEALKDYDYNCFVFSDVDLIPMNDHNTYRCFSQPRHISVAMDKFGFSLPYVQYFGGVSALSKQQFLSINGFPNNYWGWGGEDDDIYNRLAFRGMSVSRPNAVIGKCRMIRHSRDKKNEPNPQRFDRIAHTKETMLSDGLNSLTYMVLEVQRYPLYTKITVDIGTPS

B1: Hen egg albumin: glycoprotein acceptor, hen egg Ovalbumin (Sigma) (protein, UniProt P01012 2-386, looked up)
Ovalbumin: GSIGAASMEFCFDVFKELKVHHANENIFYCPIAIMSALAMVYLGAKDSTRTQINKVVRFDKLPGFGDSIEAQCGTSVNVHSSLRDILNQITKPNDVYSFSLASRLYAEERYPILPEYLQCVKELYRGGLEPINFQTAADQARELINSWVESQTNGIIRNVLQPSSVDSQTAMVLVNAIVFKGLWEKAFKDEDTQAMPFRVTEQESKPVQMMYQIGLFRVASMASEKMKILELPFASGTMSMLVLLPDEVSGLEQLESIINFEKLTEWTSSNVMEERKIKVYLPRMKMEEKYNLTSVLMAMGITDVFSSSANLSGISSAESLKISQAVHAAHAEINEAGREVVGSAEAGVDAASVSEEFRADHPFLFCIKHIATNAVLFFGRCVSP

Key:
Type in all cases: biochemical
β4Gal-T2 = target: T1, β4Gal-T2; assay: β4Gal-T2 galactosyltransferase activity assay (soluble enzyme, media of infected Sf9 cells)
Text: (§1) The PCR product were cloned into the BamHI site of pAcGP67 (Pharmingen), and the construct sequenced to verify correct insertion and sequence. The plasmid pAcGP67-β4Gal-T2-sol was co-transfected with Baculo-Goldä DNA (Pharmingen) as described previously (Bennett et al., 1996). Recombinant Baculo-virus were obtained after two successive amplifications in Sf9 cells grown in serum-containing medium, and titres of virus were estimated by titration in 24-well plates with monitoring of enzyme activities. Controls included pAcGP67-β4Gal-T3-sol (Almeida et al., 1997) and pAcGP67-GalNAc-T3-sol (Bennett et al., 1996).
(§2) Standard assays were performed in […] total reaction mixtures containing 25 mM Tris (pH 7.5), 10 mM MnCl2, 0.25% Triton X-100, […] UDP-[^14C]-Gal (2,300 cpm/nmol) (Amersham), and varying concentration of acceptor substrates (Sigma) (see Table I for structures). The soluble constructs were assayed with […] of culture supernatant from infected cells, whereas the full length construct was assayed with 1% Triton X-100 homogenates of washed cells. Bovine milk P1,4Gal-transferase (Sigma) was used as control.
Reaction products were quantified by Dowex-1 chromatography. […] The transfer of Gal was evaluated after precipitation by filtration through Whatman GF/C glass fiber filters.

β4Gal-T3 = target: T3, β4Gal-T3 (Homo sapiens, UniProt O60512); assay: β4Gal-T3 galactosyltransferase activity assay (soluble enzyme, Sf9 media)
T3 construct: media from Sf9 cells expressing secreted forms of either β4Gal-T2 or -T3 were used as enzyme sources; secretion signal of vector pAcGP67 (gp67 leader; own knowledge of the vector) (N); made in house; host or cells: Sf9 cells, baculovirus; unpurified culture supernatant
T3 sequence (O60512 32-393 limits assumed): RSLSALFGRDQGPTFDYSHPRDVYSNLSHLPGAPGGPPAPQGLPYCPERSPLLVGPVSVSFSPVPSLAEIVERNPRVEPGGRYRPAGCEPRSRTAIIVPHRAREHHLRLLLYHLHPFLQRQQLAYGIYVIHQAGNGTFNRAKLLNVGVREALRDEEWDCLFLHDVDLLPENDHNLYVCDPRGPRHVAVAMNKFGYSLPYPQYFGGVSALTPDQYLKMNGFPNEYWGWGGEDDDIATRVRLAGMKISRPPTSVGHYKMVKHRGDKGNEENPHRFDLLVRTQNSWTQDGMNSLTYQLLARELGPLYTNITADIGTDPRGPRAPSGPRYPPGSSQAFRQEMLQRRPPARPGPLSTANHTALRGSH
Procedure: as §1, with “An expression construct designed to encode amino acid residues 31-372 of β4Gal-T2 was prepared by RT-PCR with mRNA from Colo205 cell line, using the primer pair EBER100FOR (5′-[…]; SEQ ID NO: 9) and EBER114 (5′-[…]; SEQ ID NO: 10) with BamH1 restriction sites (FIG. 2). The PCR” for “The PCR”
as §2
(§3) Reaction products were quantified by Dowex-1 chromatography. Assays with hen egg Ovalbumin (Sigma), asialo-fetuin (Sigma), and asialo-agalacto-fetuin (Sigma, treated with bgalactosidase) were performed with the standard reaction mixture modified to contain […] UDP-Gal, 54 mM NaCl, and 0.5 mg Ovalbumin. The transfer of Gal was evaluated after precipitation by filtration through Whatman GF/C glass fiber filters.

Bovine milk β4Gal-T = target: T2, Bovine milk β4Gal-T; assay: Bovine milk β4Gal-transferase activity assay (control enzyme)
Procedure: as §2, §3

| Molecule | β4Gal-T2 activity with acceptor substrate (β4Gal-T2; glycoproteins at 10 mg/ml) [nmol/min/mL] | β4Gal-T3 activity with acceptor substrate (β4Gal-T3; glycoproteins at 10 mg/ml) [nmol/min/mL] | Bovine milk β4Gal-T activity with acceptor substrate (Bovine milk β4Gal-T; glycoproteins at 10 mg/ml) [nmol/min/µg] | β4Gal-T2 activity with acceptor substrate (β4Gal-T2; glycopeptides at 0.1 mM) [nmol/min/mL] | β4Gal-T3 activity with acceptor substrate (β4Gal-T3; glycopeptides at 0.1 mM) [nmol/min/mL] | Bovine milk β4Gal-T activity with acceptor substrate (Bovine milk β4Gal-T; glycopeptides at 0.1 mM) [nmol/min/µg] |
| --- | --- | --- | --- | --- | --- | --- |
| Asialo-agalacto-Fetuin: glycoprotein acceptor; asialo-fetuin (Sigma) treated with bgalactosidase | 2.8 | 0.7 | 0.8 |  |  |  |
| *-D-GalNAc-1-(FAPSNYPAL) (not fully specified) [GalNAc-glycopeptide acceptor substrate] |  |  |  | 0.0 | 0.0 | 0.0 |
| B1 | 2.0 | 1.0 | 0.7 |  |  |  |
